These results are taken from US20140135474A1 (PROTELICA, published 2014).

Where a chain is given by its changes, count along the chain named.

The target in test [1] is T1, VEGF (UniProt P15692-9 27-147, limits assumed).
T1 construct: Only the selection names the 121 isoform; also called VEGF(121)
T1 sequence (looked up): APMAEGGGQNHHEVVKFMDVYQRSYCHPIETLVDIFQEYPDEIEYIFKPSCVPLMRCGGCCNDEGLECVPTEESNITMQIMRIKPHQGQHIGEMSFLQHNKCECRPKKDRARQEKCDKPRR
The experiment in a line: Octet BLI, soluble protein. A general note: Biolayer interferometry detects binding as a change in optical thickness at a sensor tip.

For test [2], the target named is T2, TNF-α (UniProt P01375 77-233, biotinylated).
T2 construct: also called TNF-alpha; biotintylated TNF-α soluble protein
T2 sequence (P01375 77-233 limits assumed): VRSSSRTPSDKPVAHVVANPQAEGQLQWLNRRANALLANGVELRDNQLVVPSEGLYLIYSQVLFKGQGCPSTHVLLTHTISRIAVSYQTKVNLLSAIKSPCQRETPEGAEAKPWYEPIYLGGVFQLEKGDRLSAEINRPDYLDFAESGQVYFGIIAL
Kind of test: phage ELISA (OD450); wells with VEGF, TNF alfa or 2%MPBS only. A general note: An ELISA detects its analyte on a solid surface through an enzyme-linked reagent.

In test [3] the target is T1, VEGF. The experiment in a line: ELISA with purified soluble 14FN3 variant, OD450, one concentration (not given).
Test [4] concerns the target T1, VEGF. Kind of test: phage ELISA; wells with TNF, control or VEGF. How it is done:
(§1) After the third and fourth rounds of selection, a total of 373 clones were analyzed for TNF-α binding using phage ELISA. Briefly, phage from individual clones was produced by co-infection with M13K07 helper phage in 1 ml cultures in 96-deep well blocks. Phage-containing culture supernatants were then added to microtiter plates coated with the target protein. Following washes with PBS-0.1% Tween-20, bound phage was detected with a mouse anti-M13 antibody horseradish peroxidase conjugate (GE Biosciences) and TMB substrate (Pierce). Positive variants were then screened for binding specificity against VEG-F and nuetravidin plate only.

Test [5] has as its target T2, TNF-α. The experiment in a line: phage ELISA; wells with TNF, control or VEGF. As for the experimental part: as §1
Test [6] deals with T2, TNF-α. Kind of test: Octet BLI, biotinylated TNF-α on streptavidin tips; upper end of the range. As for the experimental part: (§2) The target protein was biotintylated TNF-α soluble protein (R&D Systems) and is at a concentration of 0.25 ug/ml for loading onto the streptavidin sensor tips. […] The Octet was run using the manufacturers protocol for Basic Kinetic Assay.
In test [7] the target is T2, TNF-α. Kind of test: Octet BLI, biotinylated TNF-α on streptavidin tips; lower end of the range. How it is done: as §2
In test [8] the target is T2, TNF-α. The experiment in a line: Octet BLI, biotinylated TNF-α on streptavidin tips. How it is done: as §2
Test [9] concerns the target T3, HMGB1 (UniProt P09429 1-215, limits assumed).
T3 construct: also called biotinylated HMGB1
T3 sequence (looked up): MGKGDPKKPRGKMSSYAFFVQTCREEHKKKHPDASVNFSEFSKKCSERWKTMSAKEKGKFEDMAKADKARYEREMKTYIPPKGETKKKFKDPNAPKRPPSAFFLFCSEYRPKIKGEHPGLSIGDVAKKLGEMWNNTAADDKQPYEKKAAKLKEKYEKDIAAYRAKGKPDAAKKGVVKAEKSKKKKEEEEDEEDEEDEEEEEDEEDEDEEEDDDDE
Kind of test: Octet BLI.

For test [10], the target named is T2, TNF-α. Kind of test: ELISA (OD450); wells with HMGB1, TNF or blank.
For test [11], the target named is T3, HMGB1. Kind of test: competition ELISA: biotinylated HMGB1 pre-incubated with R2F8, then bound to immobilized RAGE (blocked ligand-receptor pair HMGB1/RAGE), detected with streptavidin-HRP and TMB.
The target of test [12] is T2, TNF-α. Kind of test: phage display selection and ELISA.
Test [13] concerns the target T1, VEGF. The experiment in a line: phage ELISA.

B1: R1 D4 anti-VEGF (designed binder)
chain: NVSPPRRARVTDATETTITIPWEVAGGPIISFQVDAVPANGQTPIQRTITPDATGYTITGLQPGTDYKIYLYTLNDNARSSPVVIDAST
notes: 14FN3 variant; on phage in phage ELISA, soluble His-tagged protein in Octet
Broadly, the koff is a measure of how fast the partners let go of each other. For B1, the koff with VEGF [1] was found to be 0.00017 s⁻¹. Besides, the binding result in the test with TNF-α [2] was “no binding”.

B2: R1 F1 anti-VEGF (designed binder)
chain: B1 chain with E23A, V24L, A53I, T54R
B2: the binding result with TNF-α [2] is “no binding”.

B3: TNF-α binder R42C10 (designed binder)
chain: NVSPPRRARVTDATETTITISWYHHEDDCYYHFYYFQVDAVPANGQTPIQRTILHGTYTSYTITGLQPGTDYKIYLYTLNASGFCSHSYKPVVIDAST
notes: 14FN3 variant; on phage in phage ELISA, soluble 6xHis-tagged in ELISA; The short label C10 is tied to R42C10 by its name only
Take B3: the binding result with VEGF [3] is “no binding”.

B4: TNF-α binder R4F7 (designed binder)
chain: NVSPPRRARVTDATETTITISWYPYEYDDCYYYIYYFQVDAVPANGQTPIQRTIPDYESYYTITGLQPGTDYKIYLYTLNSYGFCPPSYKPVVIDAST
As to B4, the binding result in the test with VEGF [4] is listed as “no binding”; with TNF-α [5] it was “binds”.

B5: TNF-α binder R41A6 (designed binder)
chain: NVSPPRRARVTDATETTITISWEHSEDDCYSYIYYFQVDAVPANGQTPIQRTISGYETYYTITGLQPGTDYKIYLYTLNSAGFCPPYSKPVVIDAST
notes: 14FN3 variant; On phage (p3 fusion) in phage ELISA; soluble with 6xHis tag (phagemid also c-myc tag; pET-20b C-terminal hexahistidine) in ELISA and Octet
For orientation: Kd means the constant that tells how readily two partners part at equilibrium. In the case of B5, the Kd was no more than 100 nM with TNF-α [6] and no less than 20 nM in the test with TNF-α [7]. Besides, the binding result in the test with VEGF [3] is reported as “no binding”.

B6: A6+Fc (Fc fusion)
chain: B5 chain
notes: Expressed in E. coli BL-21(DE3); also called R41A6 Fc fusion protein; pET-20b+TNF A6+Fc #39; not shown: C-terminal hexahistidine tag of pET-20b
Take B6: in the test with TNF-α [8], the Kd is 12 to 25 nM and the “fold improvement of Koff against monomeric A6” value turned out to be 2 fold.

B7: TNF-α binder R4A8 (designed binder)
chain: B5 chain with E23Y, H24P, D28Y, Y30G, Y32S, Y35G, S54H, Y56N, Y59S
Regarding B7, the binding result with VEGF [4] is “no binding”; with TNF-α [5], “binds”.

B8: TNF-α binder R4G4 (designed binder)
chain: B5 chain with H24P, D27Y, S31Y, Y32S, S54H, G55D, Y56S, E57Y, T58N
In the case of B8, the binding result is recorded as “no binding” with VEGF [4] and “binds” in the test with TNF-α [5].

B9: P1E8 anti-HMGB1 (designed binder)
chain: NVSPPRRARVTDATETTITISWRAAESAIARFQVDAVPANGQTPIQRTIKRTKHTYTITGLQPGTDYKIYLYTLNDNARSSPVVIDAST
notes: 14FN3 variant; on phage in phage ELISA, soluble 6xHis-tagged in Octet
A word on the kon: it is a measure of how fast the partners come together. Read a high kon as fast association. Regarding B9, in the test with HMGB1 [9], the Kd came to 192 nM, the koff amounted to 0.000325 s⁻¹ and the kon worked out at 1690 M⁻¹ s⁻¹.

B10: P2C6 anti-HMGB1 (designed binder)
chain: B9 chain with S21R, R23G, A24V, E26P, A28Q, I29V, A30I, T52S, K53V, T55A
notes: as for B9
In the test with HMGB1 [9], B10 showed a Kd of 104 nM, a koff of 0.000991 s⁻¹ and a kon of 9540 M⁻¹ s⁻¹.

B11: R2D4 anti-HMGB1 (designed binder)
chain: B9 chain with R23G, A24V, A28E, I29V, A30T, T52S, T55A
notes: as for B9
For B11, the binding result with TNF-α [10] is “no binding”. For the same molecule, in the test with HMGB1 [9], the Kd stood at 159 nM, the dissociation rate constant (koff) amounted to 0.000206 s⁻¹ and the kon turned out to be 1300 M⁻¹ s⁻¹.

B12: R2E6 anti-HMGB1 (designed binder)
chain: B9 chain with S21R, R23G, A24V, E26Q, A28Q, I29V, T52S, K53V
notes: as for B9
In the case of B12, in the test with TNF-α [10], the binding result was “no binding”. In the test with HMGB1 [9], this molecule displayed an equilibrium dissociation constant (Kd) of 189 nM, a koff of 0.000955 s⁻¹ and a kon of 5040 M⁻¹ s⁻¹.

B13: R2B5 anti-HMGB1 (designed binder)
chain: B9 chain with S21R, R23T, A24V, A28K, T52S, T55S
notes: as for B9
Turning to B13, in the test with HMGB1 [9], the Kd is 65.8 nM, the koff was determined as 0.000287 s⁻¹ and the kon was found to be 4350 M⁻¹ s⁻¹.

B14: R2G2 anti-HMGB1 (designed binder)
chain: B9 chain
notes: as for B9
Turning to B14, the binding result with TNF-α [10] was “no binding”. Besides, in the test with HMGB1 [9], the Kd was 266 nM, the koff was determined as 0.00049 s⁻¹ and the on-rate constant (kon) was determined as 1840 M⁻¹ s⁻¹.

B15: R2F8 anti-HMGB1 (designed binder)
chain: B9 chain with S21R, R23A, A24R, A25S, E26A, A28E, T52S, K53A, H54N, T55I
notes: 14FN3 variant; also called R2F8 HMGB1 FN3
Turning to B15, in the test with HMGB1 [9], binding was put at a Kd of 35.3 nM, the koff turned out to be 0.000267 s⁻¹ and the kon was determined as 7580 M⁻¹ s⁻¹. Besides, the “IC50 (read off the curve)” value with HMGB1 [11] is roughly 8 µg/mL.

B16: TNF-α binder R4C5 (designed binder)
chain: NVSPPRRARVTDATETTITISWNSSYCHFYGFQVDAVPANGQTPIQRTISDYEYSYTITGLQPGTDYKIYLYTLNASCYGYHYYKPVVIDAST
notes: 14FN3 variant; on phage in phage ELISA, soluble 6xHis-tagged in ELISA; The short label C5 is tied to R4C5 by its name only
In the case of B16, the binding result with VEGF [3] is “no binding”.

B17: TNF-α binder A4A9 (designed binder)
chain: NVSPPRRARVTDATETTITISWYPYYDDCGYYISYFQVDAVPANGQTPIQRTIPDSYSSYTITGLQPGTDYKIYLYTLNDADDGHPYSKPVVIDAST
In the case of B17, the binding result in the test with VEGF [4] is recorded as “no binding”; in the test with TNF-α [5] it was “binds”.

B18: TNF-α binder R3A10 (designed binder)
chain: NVSPPRRARVTDATETTITISWYPYYYYCGYHYSYFQVDAVPANGQTPIQRTIYGYYTYYTITGLQPGTDYKIYLYTLNSSDYCYYSYYPVVIDAST
B18: the results for the binding result with TNF-α [12] and in the test with VEGF [13] were “binds” and “no binding”, respectively.

B19: P2F3 anti-HMGB1 (designed binder)
chain: NVSPPRRARVTDATETTITIRWGVPHSFQVDAVPANGQTPIQRTIKRGVRSYTITGLQPGTDYKIYLYTLNDNARSSPVVIDAST
notes: as for B9
The molecule B19 gave a dissociation rate constant (koff) in the test with HMGB1 [9] of 0.000271 s⁻¹.

B20: R1G1 anti-VEGF (designed binder)
chain: NVSPPRRARVTDATETTITIRWAGSPGPVDSFQVDAVPANGQTPIQRTIQTSETGYTITGLQPGTDYKIYLYTLNDNARSSPVVIDAST
On to B20, for which the binding result with TNF-α [2] is on record as “no binding”.

B21: TNF-α binder R4E9 (designed binder)
chain: NVSPPRRARVTDATETTITISWESYYYDCCYYIYYFQVDAVPANGQTPIQRTIYYPYTSYTITGLQPGTDYKIYLYTLNSYGYGYHYYKPVVIDAST
In the case of B21, the binding result with VEGF [4] was “no binding”; in the test with TNF-α [5], “binds”.
